Experimental findings from doi:10.1101/2020.09.12.286559 (bioRxiv, 2020) are described below.

The target in test [1] is T1, N-terminal HA-tagged TIN2L (HA-TIN2L, 1-451 aa) (human, UniProt Q9BSI4-1 1-451).
T1 sequence: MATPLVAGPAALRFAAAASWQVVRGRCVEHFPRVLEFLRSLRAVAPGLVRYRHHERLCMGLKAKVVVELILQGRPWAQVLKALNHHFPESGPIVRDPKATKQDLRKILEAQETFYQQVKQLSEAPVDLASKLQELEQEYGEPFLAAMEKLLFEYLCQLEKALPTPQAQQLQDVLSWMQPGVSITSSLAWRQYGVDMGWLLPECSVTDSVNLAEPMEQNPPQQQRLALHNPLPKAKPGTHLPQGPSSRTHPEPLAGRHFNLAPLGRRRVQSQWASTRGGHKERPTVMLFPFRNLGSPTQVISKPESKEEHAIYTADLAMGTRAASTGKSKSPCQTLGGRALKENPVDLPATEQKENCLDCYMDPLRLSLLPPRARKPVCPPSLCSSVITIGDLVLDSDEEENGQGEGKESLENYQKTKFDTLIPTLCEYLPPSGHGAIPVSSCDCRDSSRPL
The test can be described thus: native gel or EMSA. Background: Mobility shift assays separate free from complexed probe on a gel.

Test [2] addresses T2, Recombinant N-terminal His6-tagged TRF1 (human), P54274.
T2 chain: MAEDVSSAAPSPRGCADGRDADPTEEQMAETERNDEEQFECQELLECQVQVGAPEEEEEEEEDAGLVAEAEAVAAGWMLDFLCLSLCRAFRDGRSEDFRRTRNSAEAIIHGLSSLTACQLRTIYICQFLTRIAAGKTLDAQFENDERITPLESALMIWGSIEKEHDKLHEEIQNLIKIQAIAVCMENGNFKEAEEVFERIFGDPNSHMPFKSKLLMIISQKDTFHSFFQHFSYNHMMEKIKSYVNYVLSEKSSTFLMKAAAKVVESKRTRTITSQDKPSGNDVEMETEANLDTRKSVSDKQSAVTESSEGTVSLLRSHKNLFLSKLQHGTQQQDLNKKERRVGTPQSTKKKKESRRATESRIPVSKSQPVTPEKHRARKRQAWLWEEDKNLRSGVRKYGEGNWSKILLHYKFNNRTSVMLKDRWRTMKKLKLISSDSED
The test can be described thus: AFM volume analysis. As to conditions: remark: other sources report otherwise.

B1: Recombinant N-terminal His6-tagged TRF1 (natural protein)
chain: MAEDVSSAAPSPRGCADGRDADPTEEQMAETERNDEEQFECQELLECQVQVGAPEEEEEEEEDAGLVAEAEAVAAGWMLDFLCLSLCRAFRDGRSEDFRRTRNSAEAIIHGLSSLTACQLRTIYICQFLTRIAAGKTLDAQFENDERITPLESALMIWGSIEKEHDKLHEEIQNLIKIQAIAVCMENGNFKEAEEVFERIFGDPNSHMPFKSKLLMIISQKDTFHSFFQHFSYNHMMEKIKSYVNYVLSEKSSTFLMKAAAKVVESKRTRTITSQDKPSGNDVEMETEANLDTRKSVSDKQSAVTESSEGTVSLLRSHKNLFLSKLQHGTQQQDLNKKERRVGTPQSTKKKKESRRATESRIPVSKSQPVTPEKHRARKRQAWLWEEDKNLRSGVRKYGEGNWSKILLHYKFNNRTSVMLKDRWRTMKKLKLISSDSED
As for B1, in test [1], the binding result was “binds”. The stoichiometry N in test [2] came to 2.

What is called stoichiometry N is the number of molecules, sites or subunits per partner or assembly.
